Results from patent US20100104557A1 (Xencor, published 2010).
Where a chain is given by its changes, count along the chain named. Names may count otherwise. Each block holds one binder with its values, some of them ahead of it.

Assays:
[1] = target: T1, His-tagged HM1.24 antigen, residues N49-A163 of the extracellular domain (human, UniProt Q10589 49-163); assay: Biacore (SPR): His-tagged HM1.24 antigen coupled directly to the chip (NHS chemistry), antibody as analyte; separate kd and ka fitting
T1 construct: Expressed in 293T cells, purified by Ni-NTA; not shown: N-terminal His-tag and Factor Xa cleavage site
T1 sequence: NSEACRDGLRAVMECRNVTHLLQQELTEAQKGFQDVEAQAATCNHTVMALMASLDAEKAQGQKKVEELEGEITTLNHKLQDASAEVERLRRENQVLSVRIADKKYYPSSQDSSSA
Text: (§1) FIG. 17. Binding of anti-HM1.24 antibodies to HM1.24 antigen monitored by Biacore. In this format, HM1.24 antigen was coupled directly to the chip, and antibodies at multiple concentrations were used as analyte in this format.

[2] = target: T1, His-tagged HM1.24 antigen, residues …; assay: Biacore (SPR): His-tagged HM1.24 antigen coupled directly to the chip (NHS chemistry), antibody as analyte; simultaneous (global Langmuir) fitting
Text: as §1

koff [1]: 4.4e-05 s⁻¹
kon [1]: 820000 M⁻¹ s⁻¹
koff [2]: 3.57e-05 s⁻¹
kon [2]: 699000 M⁻¹ s⁻¹
B1: HM1.24_H0L0_IgG1_WT (antibody)
heavy: not shown
light: DIVMTQSHKFMSTSVGDRVSITCKASQDVNTAVAWYQQKPGQSPKLLIYSASNRYTGVPDRITGSGSGTDFTFTISSVQAEDLALYYCQQHYSTPFTFGSGTKLEIKRTVAAPSVFIFPPSDEQLKSGTASVVCLLNNFYPREAKVQWKVDNALQSGNSQESVTEQDSKDSTYSLSSTLTLSKADYEKHKVYACEVTHQGLSSPVTKSFNRGEC
notes: also called WT anti-HM1.24 antibody; parent HM1.24_H0L0_IgG1 WT antibody

koff [1]: 5.5e-05 s⁻¹
kon [1]: 863000 M⁻¹ s⁻¹
koff [2]: 4.03e-05 s⁻¹
kon [2]: 772000 M⁻¹ s⁻¹
B2: HM1.24_H0L0 IgG1 S239D/I332E (antibody)
heavy: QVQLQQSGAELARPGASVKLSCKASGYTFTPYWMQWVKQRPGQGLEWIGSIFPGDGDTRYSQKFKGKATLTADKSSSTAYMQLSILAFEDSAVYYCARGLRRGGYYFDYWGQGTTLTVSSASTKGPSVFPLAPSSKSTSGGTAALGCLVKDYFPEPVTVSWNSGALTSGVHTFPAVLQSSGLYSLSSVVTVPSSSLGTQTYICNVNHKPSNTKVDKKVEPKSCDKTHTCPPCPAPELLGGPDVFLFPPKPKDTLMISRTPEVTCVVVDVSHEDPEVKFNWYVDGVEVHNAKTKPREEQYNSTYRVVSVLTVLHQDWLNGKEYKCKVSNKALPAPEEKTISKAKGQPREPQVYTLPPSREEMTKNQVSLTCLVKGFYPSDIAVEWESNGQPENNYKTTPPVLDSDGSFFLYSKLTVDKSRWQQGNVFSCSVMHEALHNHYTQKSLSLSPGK
light: B1 light

koff [1]: 5.53e-05 s⁻¹
kon [1]: 966000 M⁻¹ s⁻¹
koff [2]: 3.18e-05 s⁻¹
kon [2]: 834000 M⁻¹ s⁻¹
B3: HM1.24_H1L4 (antibody, V domains shown)
VH: QVQLVQSGAEVKKPGASVKVSCKASGYTFTPYWMQWVRQAPGQGLEWMGSIFPGDGDTRYSQSFQGQVTISADKSISTAYMELSRLRSDDTAVYYCARGLRRGGYYFDYWGQGTLVTVSS
VL: DIVMTQSPLSLPVTLGQPASISCKASQDVNTAVAWYLQKPGKSPKLLIYSASNRYTGVPDRITGSGSGTDFTLKISRVEAEDVGVYYCQQHYSTPFTFGSGTKLEIKR
notes: also called H1 and L4 combination; parent H1 antibody

koff [1]: 4.49e-05 s⁻¹
kon [1]: 782000 M⁻¹ s⁻¹
koff [2]: 2.03e-05 s⁻¹
kon [2]: 754000 M⁻¹ s⁻¹
B4: HM1.24_H1L2 (antibody, human IgG1, kappa, V domains shown)
VH: B3 VH
VL: DIVMTQSPSSLSASVGDRVTITCQASQDVNTAVAWYQQKPDQSPKLLIYSASNRYTGVPDRITGSGSGTDFTLTISSLQAEDVAVYYCQQHYSTPFTFGSGTKLEIKR
notes: also called H1 and L2 combination

koff [1]: 9.54e-05 s⁻¹
kon [1]: 1.34e+06 M⁻¹ s⁻¹
koff [2]: 7.99e-05 s⁻¹
kon [2]: 1.29e+06 M⁻¹ s⁻¹
B5: Antibody comprising the HM1.24_H1.2 heavy chain variant and the HM1.24_L4 light chain (antibody, human IgG1, kappa, V domains shown)
VH: B3 VH with D55S
VL: B3 VL
